Measured values published in patent US7402570.

Legend:
[1] = biological target: lexA-p53 (p53 codons 1-73) fusion (human); assay: cell-based or functional assay
[2] = biological target: human p53 protein, full length (human) (UniProt P04637); assay: cell-based or functional assay
Chain of human p53 protein, full length (human) (P04637 whole entry): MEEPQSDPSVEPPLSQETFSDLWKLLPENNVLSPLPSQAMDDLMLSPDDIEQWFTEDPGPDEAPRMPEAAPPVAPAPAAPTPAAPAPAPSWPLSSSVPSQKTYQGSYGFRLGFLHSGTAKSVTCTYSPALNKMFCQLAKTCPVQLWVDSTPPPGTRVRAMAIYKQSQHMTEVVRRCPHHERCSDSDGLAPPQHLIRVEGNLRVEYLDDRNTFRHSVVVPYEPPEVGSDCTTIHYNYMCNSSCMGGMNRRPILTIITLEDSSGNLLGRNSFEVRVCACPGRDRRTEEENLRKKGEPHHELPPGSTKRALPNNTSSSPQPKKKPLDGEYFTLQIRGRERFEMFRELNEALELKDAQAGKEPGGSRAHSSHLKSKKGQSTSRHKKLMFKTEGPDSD

decrease in lexA-responsive β-galactosidase reporter activity in yeast [1]: 5 fold
inhibition of p53-mediated transactivation of a p53-responsive β-galactosidase reporter in yeast [2]: 16 fold
Substance: human MDM2 protein (hMDM2), full length
